Experimental data from US12527862B2, “Bactericidal/permeability increasing protein for use in a method of immunization, preferably as an adjuvant in a method of vaccination” (UNIVERSITÄT REGENSBURG, priority 2018, dated 2026).

What was measured:
[1] = test system: bone marrow derived dendritic cells (BMDCs); experiment: FACS surface expression of maturation markers/costimulatory molecules on BMDCs; assay type: cell-based, C57BL/6J mice; details: huBPI 200 nM, 18 h, vs unstimulated cells, n=4 (FIG. 1)
Method: BMDCs were generated from the bone marrow of male C57BL/6J mice at the age of approximately 3 to 7 months, which were bred under SPF conditions. BMDCs were generated as previously described. BMDCs were harvested on day 7 by rinsing the dish in order to obtain the non-adherent and loosely-adherent cell fractions.
Cell Stimulation 5×10^4 BMDCs per well were seeded into a tissue-culture-treated 96-well plate in VLE-RPMI 1640 media (10% FCS, 10% Penicillin-Streptomycin, 50 µM β-Mercaptoethanol) and stimulated with 200 nM huBPI.
BMDCs were stimulated with huBPI (200 nM) for 18 h. After the stimulation period, the stimulated and unstimulated cells were incubated with Fc-Block and stained using the indicated antibodies (Table 1) and the respective isotype controls (Table 2). 7-Aminoactinomycin D (7-AAD, #00-6993-50, eBioscience) positive stained cells were excluded from the analysis. Flow cytometry measurement was performed using the instrument BD FACS Canto™ II (BD Bioscience). Data was analyzed using BD FACSDiva™ software v.7.0 (BD Bioscience) as well as FlowJo v.10 (Tree Star).

[2] = test system: BMDCs; experiment: Quantitative real-time PCR gene expression in BMDCs; assay type: cell-based, C57BL/6J mice; details: BMDCs stimulated with BPI; rtPCR normalized to HPRT, also microarray (FIGS. 2B and C)
Method: Gene expression analyses using rtPCR were performed 30 min, 1 h, 2 h, 4 h, 8 h, 12 h, 24 h and 48 h after the stimulation.
After stimulation, cells were lysed and RNA was isolated using RNeasyR Mini Kit (#74106, Qiagen). Remaining DNA in the sample was digested using TURBO DNA-free™ Kit (#AM1907, ThermoFisher Scientific). Finally, the RNA concentration was measured with a NanoDrop 1000 (Thermo Scientific). The isolated RNA was transcribed into complementary DNA (cDNA) using the iScript™ª Advanced cDNA Synthesis Kit (#1725038, Bio-Rad).
To analyze altered gene transcription, in particular of genes CXCL10, HPRT, IL-2, IL-6, and IL-12p40, in response to different stimulatory reagents, quantitative real-time PCR (qRT-PCR) was performed using SYBR-Green Master Mix (LightCycler® 480 SYBR Green I Master, #4707516001, Roche). Gene-specific primers synthesized by Thermo Fisher Scientific, Microsynth, Biomers, and Metabion were used. PCR reaction was performed using the HT 7900 Real-Time PCR system (Applied Biosystems). SDS software version 2.4 (Applied Biosystems) was used to analyze the gene expression, which was normalized to the housekeeping gene HPRT. 2^-ΔΔCT method was used to analyze the data.

[3] = test system: murine dendritic cells (BMDC); experiment: TNFα ELISA in murine dendritic cells (BMDC); assay type: cell-based; details: LPS Ec 10 ng/ml or BPI 100 nM, 18 h, ELISA (FIG. 4A)
Method: (§1) Generation of BMDM was carried out similarly to BMDCs; MCSF was used instead of GMSCF for differentiation of BMDM. Cells were re-plated on day 1 of culture and harvested on day 5. On day 1, cells were seeded in new plates and harvested on day 5 for the experiments. Cells were stimulated with LPS Ec (10 ng/ml) or BPI (100 nM) for 18 h before supernatants were collected. TNFα levels were determined by ELISA (OPTEIA™ Murine TNFα ELISA Set, BD Bioscience, Heidelberg, Germany).

[4] = test system: murine macrophages (BMDM); experiment: TNFα ELISA in murine macrophages (BMDM); assay type: cell-based; details: LPS Ec 10 ng/ml or BPI 100 nM, 18 h, ELISA (FIG. 4B)
Method: as §1

[5] = test system: CD3+CD8+ T cells; experiment: Intracellular IFNγ staining of CD8+ T cells after supernatant stimulation; assay type: cell-based, C57BL/6J mice; details: SN BPI vs SN NT, 24h, n=4 (FIG. 13D)
Method: Naive CD4+CD25-CD44-CD62L+ T cells were isolated from peripheral lymph nodes and spleen of C57BL/6J mice and purified by MACS and FACS. Naïve CD4+ T cells were cultured in the presence of aCD3 and aCD28 antibodies and dendritic cell-derived supernatant after stimulation with BPI (SN BPI, BPI 200 nM) or after stimulation with ODN 1826 (SN CpG, ODN 1826 20 nM) or after stimulation with BPI and ODN 1826 (SN BPI+CpG, BPI 200 nM, ODN 1826 20 nM) or supernatant without addition of BPI or ODN 1826 (SN NT). On day five, cytokine levels were measured by Luminex. • A. Th1 differentiation as shown by detection of IFNγ (n=3). • B. Th17 differentiation as shown by detection of IL-17 (n=3). • C. […] Lymph node cells were stimulated with aCD3 and aCD28 antibodies and SN BPI or SN NT and incubated for 6h before adding a protein transport inhibitor cocktail and incubating for additional 16h. Cells were fixed and permeabilized and stained for CD3, CD4, CD8, and IFNγ. Lines are connecting the amount of IFNγ-producing CD3+CD8+ T cells after treatment with SN BPI or SN NT for 24h. • Bars represent the means±standard error of the mean. Statistics for comparison were performed with the paired Student's t-test (A to C) or the ratio paired Student's t-test (D).
All described work steps were conducted on ice. […]

B1: bactericidal/permeability-increasing protein (protein)
chain: RIKIPDYSDSFKIKHLGKGHYSFYSMDIREFQLPSSQISMVPNVGLKFSISNANIKISGKWKAQKRFLKMSGNFDLSIEGMSISADLKLGSNPTSGKPTITCSSCSSHINSVHVHISKSKVGWLIQLFHKKIESALRNKMNSQVCEKVTNSVSSELQPYFQTLPVMTKIDSVAGINYGLVAPPATTAETLDVQMKGEFYSENHHNPPPFAPPVMEFPAAHDRMVYLGLSDYFFNTAGLVYQEAGVLKMTLRDDMIPKESKFRLTTKFFGTFLPEVAKKFPNMKIQIHVSASTPPHLSVQPTGLTFYPAVDVQAFAVLPNSSLASLFLIGMHTTGSMEVSAESNRLVGELKLDRLLLELKHSNIGPFPVELLQDIMNYIVPILVLPRVNEKLQKGFPLPTPARVQLYNVVLQPHQNFLLFGADVVYK
modifications: labeled with NT647 (Monolith NT Protein Labeling Kit RED-NHS) in the MST experiments
notes: recombinant human BPI, aa32-487 of huBPI with N-terminal HA signal peptide, expressed in HEK293T cells
For B1, the “expression of costimulatory receptors CD40, CD80, and CD86” value [1] was “promotes expression of costimulatory receptors CD40, CD80, and CD86”, the “CXCL10, IL-2, IL-6, and IL-12p40 mRNA expression” value [2] was “increase of CXCL10, IL-2, IL-6, and IL-12p40 mRNA expression” and the “TNFα secretion by dendritic cells” value [3] was “secrete TNFα”. For the same molecule, the “TNFα secretion by macrophages” value [4] was “not in response to stimulation with BPI” and the “activation of CD8+ T cells (IFNγ-producing CD3+CD8+ T cells)” value [5] was “activation of CD8+ T cells”.
